Results: US20220002398A1 (ONCOONE RESEARCH AND DEVELOPMENT, published 2022)

Experiments:
[1] = target: T1, Recombinant human MIF, immobilized (transforming MIF to oxMIF) (human, UniProt P14174 2-115); experiment: ELISA, immobilized recombinant human MIF (oxMIF), protein L-HRP detection, 4-parameter fit
T1 construct: also called immobilized MIF (oxMIF); HuMIF
Experimental: Recombinant human MIF (1 μg/ml) diluted in PBS was immobilized into microwell plates (transforming MIF to oxMIF according to Thiele M. et al., 2015, J Immunol 2015; 195:2343-2352). After blocking, the bispecific antibodies were added to the plates at different concentrations. Bound bispecific antibodies were detected using protein L-HRP conjugate. Plates were developed by adding TMB and chromogenic reaction was stopped with H₂SO₄. OD was measured at 450 nm.
EC50 values of the binding curves, which reflect rough KD estimates, were calculated by 4-parameter fit and are shown in Table 5.

[2] = target: T2, native CD3 on CD3-positive Jurkat T cells (UniProt P07766 23-207; P04234 22-171; P09693 23-182); experiment: flow cytometry on viable CD3+ Jurkat T cells, antibody at 70 nM, goat anti-human IgG (H+L) Alexa Fluor 488
T2 construct: whole, on cells; also called functional CD3 (CD3+)
T2 sequence (P07766 23-207, chain 1 of 3): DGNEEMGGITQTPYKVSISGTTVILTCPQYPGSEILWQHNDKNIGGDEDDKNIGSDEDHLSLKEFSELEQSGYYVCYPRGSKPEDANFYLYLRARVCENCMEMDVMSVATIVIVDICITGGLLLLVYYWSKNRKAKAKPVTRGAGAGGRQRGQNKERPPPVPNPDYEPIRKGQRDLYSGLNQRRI
T2 sequence (P04234 22-171, chain 2 of 3): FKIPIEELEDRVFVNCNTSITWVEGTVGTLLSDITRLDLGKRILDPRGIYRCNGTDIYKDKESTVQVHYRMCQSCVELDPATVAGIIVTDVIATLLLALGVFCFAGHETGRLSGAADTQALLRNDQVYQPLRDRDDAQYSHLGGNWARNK
T2 sequence (P09693 23-182, chain 3 of 3): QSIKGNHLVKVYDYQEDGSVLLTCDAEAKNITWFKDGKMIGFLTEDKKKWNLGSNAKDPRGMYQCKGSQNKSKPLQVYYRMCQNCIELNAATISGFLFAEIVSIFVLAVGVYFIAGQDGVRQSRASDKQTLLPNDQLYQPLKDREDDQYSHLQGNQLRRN
Experimental: CD3 positive Jurkat T-cells, which express functional CD3 (CD3+) were incubated with bispecific antibodies, C0008 (anti-oxMIF monospecific control antibody), a non-specific isotype control antibody (Isotype) at a concentration of 70 nM or without antibody (secondary ab only). Bound antibodies were detected by a goat anti-human IgG (H+L) Alexa-Fluor 488 conjugate (secondary antibody). 7AAD was used to label dead cells and samples were analysed by FACS.

[3] = target: T1, Recombinant human MIF, immobilized …; experiment: SPR, Biacore T200, HuMIF immobilized on CM5 chip, single cycle kinetics, 1:1 Langmuir model
Experimental: The affinity of the antibodies was determined using a Biacore™ T200 device. HuMIF was immobilized onto CM5 sensor chips and anti-oxMIF bispecific entities were injected at different concentrations in running buffer (HBS-EP plus 0.1% BSA) to generate single cycle kinetic profiles.

T1 sequence (P14174 2-115 limits assumed): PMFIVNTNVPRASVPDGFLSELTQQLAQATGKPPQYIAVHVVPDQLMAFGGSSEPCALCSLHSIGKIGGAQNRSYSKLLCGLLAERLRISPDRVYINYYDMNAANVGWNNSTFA

| EC50 [1] | Kd [3] | Binder | binding result [2] |
| --- | --- | --- | --- |
| 4.6 nM | 7.2 nM | C0006 (Anti-oxMIF/CD3 Crossmab (CH1-CL), Crossmab) (bispecific antibody, human IgG1, kappa) light 1: DIQMTQSPSSLSASVGDRVTITCRSSQRIMTYLNWYQQKPGKAPKLLIFVASHSQSGVPSRFRGSGSETDFTLTISGLQPEDSATYYCQQSFWTPLTFGGGTKVEIKRTVAAPSVFIFPPSDEQLKSGTASVVCLLNNFYPREAKVQWKVDNALQSGNSQESVTEQDSKDSTYSLSSTLTLSKADYEKHKVYACEVTHQGLSSPVTKSFNRGEC heavy 1: not shown heavy 2: not shown light 2: DIQMTQSPSSLSASVGDRVTITCSASSSVSYMNWYQQKPGKAPKRLIYDTSKLASGVPSRFSGSGSGTDFTLTISSLQPEDFATYYCQQWSSNPFTFGQGTKLEIKSSASTKGPSVFPLAPSSKSTSGGTAALGCLVKDYFPEPVTVSWNSGALTSGVHTFPAVLQSSGLYSLSSVVTVPSSSLGTQTYICNVNHKPSNTKVDKKVEPKSC | binds |
| 2.3 nM | 2.3 nM | C0036 (Anti-oxMIF Fab fused to anti-CD3 scFv (HC); format: Fab-scFv) (bispecific antibody) heavy: EVQLLESGGGLVQPGGSLRLSCAASGFTFSIYSMNWVRQAPGKGLEWVSSIGSSGGTTYYADSVKGRFTISRDNSKNTLYLQMNSLRAEDTAVYYCAGSQWLYGMDVWGQGTTVTVSSASTKGPSVFPLAPSSKSTSGGTAALGCLVKDYFPEPVTVSWNSGALTSGVHTFPAVLQSSGLYSLSSVVTVPSSSLGTQTYICNVNHKPSNTKVDKRVEPKSCGGGGSGGGGSGGGGSQVQLVQSGAEVKKPGASVKVSCKASGYTFTRYTMHWVRQAPGQGLEWMGYINPSRGYTNYNQKFKDRVTLTTDKSSSTAYMELSSLRSEDTAVYYCARYYDDHYSLDYWGQGTLVTVSSGGSGGSGGSGGSGGSDIQMTQSPSSLSASVGDRVTITCSASSSVSYMNWYQQKPGKAPKRLIYDTSKLASGVPSRFSGSGSGTDFTLTISSLQPEDFATYYCQQWSSNPFTFGQGTKLEIKAAAEQKLISEEDLAAHHHHHH light: DIQMTQSPSSLSASVGDRVTITCRSSQRIMTYLNWYQQKPGKAPKLLIFVASHSQSGVPSRFRGSGSETDFTLTISGLQPEDSATYYCQQSFWTPLTFGGGTKVEIKRTVAAPSVFIFPPSDEQLKSGTASVVCLLNNFYPREAKVQWKVDNALQSGNSQESVTEQDSKDSTYSLSSTLTLSKADYEKHKVYACEVTHQGLSSPVTKSFNRGEC |  |
| 0.3 nM | 0.61 nM | C0007 (Full anti-oxMIF IgG with anti-CD3 scFv fused to heavy chain, v IgG1-scFv fusion) (bispecific antibody) heavy: not shown light: DIQMTQSPSSLSASVGDRVTITCRSSQRIMTYLNWYQQKPGKAPKLLIFVASHSQSGVPSRFRGSGSETDFTLTISGLQPEDSATYYCQQSFWTPLTFGGGTKVEIKRTVAAPSVFIFPPSDEQLKSGTASVVCLLNNFYPREAKVQWKVDNALQSGNSQESVTEQDSKDSTYSLSSTLTLSKADYEKHKVYACEVTHQGLSSPVTKSFNRGEC | binds |
| 4.6 nM | 9.4 nM | C0038 (Anti-oxMIF Fab and anti-CD3 scFv fused to Fc, Fab-scFv-Fc) (bispecific antibody, human IgG1, kappa) light: DIQMTQSPSSLSASVGDRVTITCRSSQRIMTYLNWYQQKPGKAPKLLIFVASHSQSGVPSRFRGSGSETDFTLTISGLQPEDSATYYCQQSFWTPLTFGGGTKVEIKRTVAAPSVFIFPPSDEQLKSGTASVVCLLNNFYPREAKVQWKVDNALQSGNSQESVTEQDSKDSTYSLSSTLTLSKADYEKHKVYACEVTHQGLSSPVTKSFNRGEC heavy: not shown not shown |  |
|  |  | C0008 (full anti-oxMIF IgG, IgG1) (antibody, V domains shown, Monospecific control antibody; also called anti-oxMIF monospecific control antibody) VH: EVQLLESGGGLVQPGGSLRLSCAASGFTFSIYSMNWVRQAPGKGLEWVSSIGSSGGTTYYADSVKGRFTISRDNSKNTLYLQMNSLRAEDTAVYYCAGSQWLYGMDVWGQGTTVTVSS VL: DIQMTQSPSSLSASVGDRVTITCRSSQRIMTYLNWYQQKPGKAPKLLIFVASHSQSGVPSRFRGSGSETDFTLTISGLQPEDSATYYCQQSFWTPLTFGGGTKVEIKR | no binding (tested: 70 nM) |
| 4 nM | 4.3 nM | C0032 (Anti-oxMIF-scFv fused to an anti-CD3-scFv, BiTE) (bispecific antibody, also called anti-oxMIF/CD3 BiTE) DIQMTQSPSSLSASVGDRVTITCRSSQRIMTYLNWYQQKPGKAPKLLIFVASHSQSGVPSRFRGSGSETDFTLTISGLQPEDSATYYCQQSFWTPLTFGGGTKVEIKGGGGSGGGGSGGGGSEVQLLESGGGLVQPGGSLRLSCAASGFTFSIYSMNWVRQAPGKGLEWVSSIGSSGGTTYYADSVKGRFTISRDNSKNTLYLQMNSLRAEDTAVYYCAGSQWLYGMDVWGQGTTVTVSSGGGGSQVQLVQSGAEVKKPGASVKVSCKASGYTFTRYTMHWVRQAPGQGLEWMGYINPSRGYTNYNQKFKDRVTLTTDKSSSTAYMELSSLRSEDTAVYYCARYYDDHYSLDYWGQGTLVTVSSGGSGGSGGSGGSGGSDIQMTQSPSSLSASVGDRVTITCSASSSVSYMNWYQQKPGKAPKRLIYDTSKLASGVPSRFSGSGSGTDFTLTISSLQPEDFATYYCQQWSSNPFTFGQGTKLEIKAAAEQKLISEEDLSAWSHPQFEK | binds |
| 1.9 nM | 4.8 nM | C0033 (Variable domains of anti-oxMIF and anti-CD3 fused in a row (VL1-VH2-VL2-VH1, TandAb)) (bispecific antibody) DIQMTQSPSSLSASVGDRVTITCSASSSVSYMNWYQQKPGKAPKRLIYDTSKLASGVPSRFSGSGSGTDFTLTISSLQPEDFATYYCQQWSSNPFTFGQGTKLEIKGGSGGSEVQLLESGGGLVQPGGSLRLSCAASGFTFSIYSMNWVRQAPGKGLEWVSSIGSSGGTTYYADSVKGRFTISRDNSKNTLYLQMNSLRAEDTAVYYCAGSQWLYGMDVWGQGTTVTVSSGGSGGSDIQMTQSPSSLSASVGDRVTITCRSSQRIMTYLNWYQQKPGKAPKLLIFVASHSQSGVPSRFRGSGSETDFTLTISGLQPEDSATYYCQQSFWTPLTFGGGTKVEIKGGSGGSQVQLVQSGAEVKKPGASVKVSCKASGYTFTRYTMHWVRQAPGQGLEWMGYINPSRGYTNYNQKFKDRVTLTTDKSSSTAYMELSSLRSEDTAVYYCARYYDDHYSLDYWGQGTLVTVSSAAAEQKLISEEDLSAWSHPQFEK |  |
| 3.4 nM | 5.9 nM | C0037 (Anti-oxMIF Fab fused to two anti-CD3 scFv, format: Fab-(scFv)2) (bispecific antibody) heavy: EVQLLESGGGLVQPGGSLRLSCAASGFTFSIYSMNWVRQAPGKGLEWVSSIGSSGGTTYYADSVKGRFTISRDNSKNTLYLQMNSLRAEDTAVYYCAGSQWLYGMDVWGQGTTVTVSSASTKGPSVFPLAPSSKSTSGGTAALGCLVKDYFPEPVTVSWNSGALTSGVHTFPAVLQSSGLYSLSSVVTVPSSSLGTQTYICNVNHKPSNTKVDKRVEPKSCGGGGSGGGGSGGGGSQVQLVQSGAEVKKPGASVKVSCKASGYTFTRYTMHWVRQAPGQGLEWMGYINPSRGYTNYNQKFKDRVTLTTDKSSSTAYMELSSLRSEDTAVYYCARYYDDHYSLDYWGQGTLVTVSSGGSGGSGGSGGSGGSDIQMTQSPSSLSASVGDRVTITCSASSSVSYMNWYQQKPGKAPKRLIYDTSKLASGVPSRFSGSGSGTDFTLTISSLQPEDFATYYCQQWSSNPFTFGQGTKLEIKAAAEQKLISEEDLAAHHHHHH light: DIQMTQSPSSLSASVGDRVTITCRSSQRIMTYLNWYQQKPGKAPKLLIFVASHSQSGVPSRFRGSGSETDFTLTISGLQPEDSATYYCQQSFWTPLTFGGGTKVEIKRTVAAPSVFIFPPSDEQLKSGTASVVCLLNNFYPREAKVQWKVDNALQSGNSQESVTEQDSKDSTYSLSSTLTLSKADYEKHKVYACEVTHQGLSSPVTKSFNRGECGGGSGGGSGGGSQVQLVQSGAEVKKPGASVKVSCKASGYTFTRYTMHWVRQAPGQGLEWMGYINPSRGYTNYNQKFKDRVTLTTDKSSSTAYMELSSLRSEDTAVYYCARYYDDHYSLDYWGQGTLVTVSSGGSGGSGGSGGSGGSDIQMTQSPSSLSASVGDRVTITCSASSSVSYMNWYQQKPGKAPKRLIYDTSKLASGVPSRFSGSGSGTDFTLTISSLQPEDFATYYCQQWSSNPFTFGQGTKLEIKASAWSHPQFEK |  |
| 0.3 nM | 1 nM | C0039 (Full anti-oxMIF IgG with anti-CD3 scFv fused to light chain, IgG(lc)-scFv) (bispecific antibody, also called IgG(Ic)-scFv) heavy: not shown light: DIQMTQSPSSLSASVGDRVTITCRSSQRIMTYLNWYQQKPGKAPKLLIFVASHSQSGVPSRFRGSGSETDFTLTISGLQPEDSATYYCQQSFWTPLTFGGGTKVEIKRTVAAPSVFIFPPSDEQLKSGTASVVCLLNNFYPREAKVQWKVDNALQSGNSQESVTEQDSKDSTYSLSSTLTLSKADYEKHKVYACEVTHQGLSSPVTKSFNRGECGGGGSGGGGSGGGGSQVQLVQSGAEVKKPGASVKVSCKASGYTFTRYTMHWVRQAPGQGLEWMGYINPSRGYTNYNQKFKDRVTLTTDKSSSTAYMELSSLRSEDTAVYYCARYYDDHYSLDYWGQGTLVTVSSGGSGGSGGSGGSGGSDIQMTQSPSSLSASVGDRVTITCSASSSVSYMNWYQQKPGKAPKRLIYDTSKLASGVPSRFSGSGSGTDFTLTISSLQPEDFATYYCQQWSSNPFTFGQGTKLEIK | binds |
